# Reference: PMC2836958 (Molecular Biology of the Cell, 2010)
# Read-outs that look alike come from different tables or passages of the source.
# T1: Vps4^E233Q (S. cerevisiae, UniProt P52917 1-437, E233Q)
# T1 sequence (looked up): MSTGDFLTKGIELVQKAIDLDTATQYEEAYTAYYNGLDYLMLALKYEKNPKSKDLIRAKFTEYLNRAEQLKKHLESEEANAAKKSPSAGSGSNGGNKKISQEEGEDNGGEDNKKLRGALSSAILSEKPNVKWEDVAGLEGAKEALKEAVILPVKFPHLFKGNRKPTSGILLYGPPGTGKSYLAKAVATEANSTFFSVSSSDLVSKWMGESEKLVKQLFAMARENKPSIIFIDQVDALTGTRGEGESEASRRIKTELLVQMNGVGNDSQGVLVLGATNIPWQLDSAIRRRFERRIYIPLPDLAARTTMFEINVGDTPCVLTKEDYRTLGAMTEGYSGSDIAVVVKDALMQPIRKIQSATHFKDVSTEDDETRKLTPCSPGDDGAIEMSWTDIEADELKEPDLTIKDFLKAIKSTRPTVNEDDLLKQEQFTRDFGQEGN
# B1: Ist1 (natural protein, S. cerevisiae, UniProt P53843 1-298, looked up)
# chain: MAPSMIPFTIKLKTCLKMCIQRLRYAQEKQQAIAKQSRRQVAQLLLTNKEQKAHYRVETLIHDDIHIELLEILELYCELLLARVQVINDISTEEQLVKEHMDDGINEAIRSLIYAILFVDEVKELSQLKDLMAWKINVEFVNGVIADHIDVPEKIIKKCSPSVPKEELVDLYLKEIAKTYDVPYSKLENSLSSSSSNISSDFSDPSGDIEDNDEEKPILALDNDDNDNADAKHPITVKKPRQNSENIKNELKIPKDIKKEVIEKKQSEKKTTKRKTKKEQENDELDELKKRFDALRRK
# Legend:
# Test in all cases: pull-down
# Ist1 = target: B1
# Vps4^E233Q [1] = target: T1, Vps4^E233Q
# Vps4^E233Q [2] = target: T1, Vps4^E233Q; remark: listed apart in the source
binding result (Ist1),Binder,also measured
binds,"GST-Did2 (natural protein, S. cerevisiae, UniProt P69771 1-204, looked up) MSRNSAAGLENTLFQLKFTSKQLQKQANKASKEEKQETNKLKRALNENEDISRIYASNAIRKKNERLQLLKLASRVDSVASRVQTAVTMRQVSASMGQVCKGMDKALQNMNLQQITMIMDKFEQQFEDLDTSVNVYEDMGVNSDAMLVDNDKVDELMSKVADENGMELKQSAKLDNVPEIKAKEVNVDDEKEDKLAQRLRALRG",–
binds,"GST-CT(Did2) (domain or fragment, S. cerevisiae, UniProt P69771 113-204, looked up) QQITMIMDKFEQQFEDLDTSVNVYEDMGVNSDAMLVDNDKVDELMSKVADENGMELKQSAKLDNVPEIKAKEVNVDDEKEDKLAQRLRALRG",–
–,B1,binding result (Vps4^E233Q [1]): binds
–,"GST-Vps20(C) (domain or fragment, S. cerevisiae, UniProt Q04272 101-221, looked up) QFINGLKNGNEILKKLNKEFSNVDELMDDVQDQIAYQNEINETLSRSLVGTSNYEDDLDKELDALESELNPEKMNNAKVANMPSTEGLPSLPQGEQTEQKEREEFATEERSDTKEPLALLS",binding result (Vps4^E233Q [2]): binds
